The source of these data is paper doi:10.1101/2025.04.02.646830 (bioRxiv, 2025).

In the assay the target is T1, FtsA (E. coli, UniProt P0ABH0 1-420).
T1 sequence (looked up): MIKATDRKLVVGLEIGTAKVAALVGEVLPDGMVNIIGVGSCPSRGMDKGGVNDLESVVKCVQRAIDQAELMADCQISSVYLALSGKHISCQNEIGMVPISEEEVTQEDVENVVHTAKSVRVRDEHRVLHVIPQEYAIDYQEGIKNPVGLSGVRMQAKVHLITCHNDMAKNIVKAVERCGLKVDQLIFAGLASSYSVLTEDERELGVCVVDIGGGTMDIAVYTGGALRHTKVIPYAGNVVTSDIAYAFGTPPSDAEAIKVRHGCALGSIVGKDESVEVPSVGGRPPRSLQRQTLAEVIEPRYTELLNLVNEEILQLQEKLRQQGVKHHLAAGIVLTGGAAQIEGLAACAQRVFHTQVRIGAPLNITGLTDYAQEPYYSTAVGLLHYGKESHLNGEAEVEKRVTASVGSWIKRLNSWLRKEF
The assay can be described thus: TIRF microscopy of FtsZ membrane recruitment on supported lipid bilayers.

* marks the point of attachment. 6xHis = N-terminal hexahistidine tag, N[C@@H](Cc1c[nH]cn1)C(=O)N[C@@H](Cc1c[nH]cn1)C(=O)N[C@@H](Cc1c[nH]cn1)C(=O)N[C@@H](Cc1c[nH]cn1)C(=O)N[C@@H](Cc1c[nH]cn1)C(=O)N[C@@H](Cc1c[nH]cn1)C(=O)*

B1: Alexa Fluor 488-labeled FtsZ (natural protein, E. coli, UniProt P0A9A6 1-383, looked up)
chain: MFEPMELTNDAVIKVIGVGGGGGNAVEHMVRERIEGVEFFAVNTDAQALRKTAVGQTIQIGSGITKGLGAGANPEVGRNAADEDRDALRAALEGADMVFIAAGMGGGTGTGAAPVVAEVAKDLGILTVAVVTKPFNFEGKKRMAFAEQGITELSKHVDSLITIPNDKLLKVLGRGISLLDAFGAANDVLKGAVQGIAELITRPGLMNVDFADVRTVMSEMGYAMMGSGVASGEDRAEEAAEMAISSPLLEDIDLSGARGVLVNITAGFDLRLDEFETVGNTIRAFASDNATVVIGTSLDPDMNDELRVTVVATGIGMDKRPEITLVTNKQVQQPVMDRYQQHGMAPLTQEQKPVAKVVNDNAPQTAKEPDYLDIPAFLRKQAD
modifications: Alexa Fluor 488 label (site not stated)
B1: the binding result is on record as “binds”.

B2: ^N-pepPBP1b (residues 1-64) peptide, N-terminal 6x-His tag, C-terminal cysteine, labelled with cyanine 5 (peptide)
peptide: 6xHis-MAGNDREPIGRKGKPTRPVKQKVSRRRYEDDDDYDDYDDYEDEEPMPRKGKGKGKGRKPRGKRGC(sulfo‑cyanine5‑maleimide)
As to B2, the binding result is reported as “binds”.
